A protein production outcome set (Wang et al. 2014)

Assay: label from the status in PepcDB records

| Sequence | protein production |
| --- | --- |
| MKVFEFEVGKGFLLRLDYGKDLVRQIEEFLEEKGIHAAHISAIGAVRSAVIGYYDQEKKEYVKKELMEPLEILSLSGNVSMKDSKPFCHIHVLLGKDGEVYGGHLFSAEVFACEVFVLPLSGEAPERAFDEQTGLFLWLEHHHHHH | not failed |
| MKVGIIGLGFRLGYLGYVFKAIDSSFDIVGYVDPDPAGLPGLTEKGISAGKAYGSPEELLASEKLDLLMIGSPNHMHLGHIRLGLQAGLKVFCEKPIVTTIAESIELAHLMAKFGHERLMVGLVLRYSPLYKDLRAIQAEGKLGQIVSIEASEHIEPYHGAFFMRDWRRYERYSGSFMLEKCCHDLDLYNGVVGARPERVASFGGRKSFIPANDPAREGINDLELFHRKPSGWMGSDKVFDSDADIIDYQVAIVEYENGVGMNFHTNLNVPDQFRRFAIMGSRGMAEGDFVRGYLDVHEQLTGNKIVENKYAATELSQHYGADEQMASDLLESVRTGLELPVSTLNALEAGILALAMDEARMKKTVVDLRPIWDRFDEALHARAA | failed |
| MKVGVIGASEMAGSAIYKLAKQNLEIDVTGIVRHESKAKKVLGDDAKLIVGDIFALSDNILDKFDVIIDAFGTDPKNAEEHVILAKKLINLVRKNKIRVIFILGAGSLHTGDDEHLVVDDIAQMDNADTWINTPRQQLKELEYLNSIDDVDWLGISPALQFEAGPATEYIEGTDELLYNKDGDSKLTSGTMATVVIKETVDSVHHQERITIANALEHHHHHH | not failed |
| MKVIETNFTDAKLLEPRLFGDDRGFFTESYNKKVLETLGVTHSFVQDNVSYSAEAGTIRGLHFQKNPKAQTKLIQVMQGAIYDVIVDLRKDSPTFKQWRGYILSADNHRQLLVPKGFAHGFCTLVPHTIVMYKVDEYYSADHDSGVLWNDKELAIPWPVTSPILSDKDRILPLLQECEDSF | not failed |
| MKVIIIGGETTAYYLARSMLSRKYGVVIINKDRELCEEFAKKLKATIIHGDGSHKEILRDAEVSKNDVVVILTPRDEVNLFIAQLVMKDFGVKRVVSLVNDPGNMEIFKKMGITTVLNLTTLITNTVEALIFPDEFSSIIPLEQGIE | failed |
| MKVLAVAYDPRDFGELATGVRDSLGDAELVFLAVHKAAEEPGKASGYSEKVFVSRTSSPESIALLLEKLISEEKPDIIVGEAYKNLRDALSRVAGKLDLPMATDVSSFSVENGKVKFRKGFLSEKAVMEAEIPKPAVILFLTRFTKPKEISPESQARIVELEPPQGETKVVETRPKEMGGANLEEAEIIVGVGRGFKSKEDLKLAFELAELLNAQIGCTRPIAADLKWLSEDHWIGISGKRVAPKLYLAIGISGSPQHMSGVQNAKIIVAVNKDKNAPIFKQADYGVVADLYQFIPVLIKKLRERKSN | failed |
| MKVLDSRDFAKVKAIAIERASYRNIGALAVYIGSMTGMRISEVLALTWPDIDTKLCVIHVTRSWDHLYGTGFKPTKTDSSVRDIEISPSVIELLNKIHQEQAASYLRTGYRDEDQMIMRDPRHNVITDSACNKALHVIQNKAGIPEDKQITFHGLRHSHVSYLISKGVDIYYISKRLGHSDVTITMKVYGHLLDSQRKQEAHKAVLFMDQILEHHHHHH | failed |
| MKVLESAPSRYDRGIRIITLGKLDEAYDRLTSRIKPGQRVLDVGCGTGALTLRAALRGARVKAIDINPQMLEIARKRVEEAGVTGMVELCEMGVAELNTEASEGYDAVMAGLCFSELTEDELSYALREIKRVLKPGALLLIADEAVPESPVKRVLSWLIRAPLAVIAYLLIQTTTRAVKNLPEKLGEEGFLIESVRRSFMEDFVEIVARKPGR | failed |
| MKVLFLTANEFEDVELIYPYHRLKEEGHEVYIASFERGTITGKHGYSVKVDLTFDKVNPEEFDALVLPGGRAPERVRLNEKAVSIARKMFSEGKPVASICHGPQILISAGVLRGRKGTSYPGIKDDMINAGVEWVDAEVVVDGNWVSSRVPADLYAWMREFVKLLK | not failed |
| MKVLIDTNVILDVLLNRASFVQDAIAVLELTCGNIQAYVSASAITDIYYIAYKELRDKIRVKNLIKTLLQIITVAGISDKEIMSAIDSDWADFEDSLQNAVAESHDCSMIITRNISDFNGSNLQIISPKDFIVQFTHLEHHHHHH | failed |
| MKVLLVLTDAYSDCEKAITYAVNFSEKLGAELDILAVLEDVYNLERANVTFGLPFPPEIKEESKKRIERRLREVWEKLTGSTEIPGVEYRIGPLSEEVKKFVEGKGYELVVWACYPSAYLCKVIDGLNLASLIVK | not failed |
| MKVMIEKILLVQTLKRLPRMGWLIKGVQEPESIADHSFGVAFITLVLADVLEKRGKRIDVEKALKMAIVHDLAEAIITDIPLSAQEFVDKDKAEALVFKKVFPEFYELYREYQECSSPEAQLVRIADKLDMILQAYQYELSGNKNLDEFWEAIEEIKRLELSKYLEDILNSVGRLKA | not failed |
| MKVSLGNGEMGVSAHLQPCKAGTTRFFTSNTHSSVVLQGFDQLRIEGLLCDVTLVPGDGDEIFPVHRAMMASASDYFKAMFTGGMKEQDLMCIKLHGVNKVGLKKIIDFIYTAKLSLNMDNLQDTLEAASFLQILPVLDFCKVFLISGVSLDNCVEVGRIANTYNLIEVDKYVNNFILKNFPALLSTGEFLKLPFERLAFVLSSNSLKHCTELELFKAACRWLRLEDPRMDYAAKLMKNIRFPLMTPQDLINYVQTVDFMRTDNTCVNLLLEASNYQMMPYMQPVMQSDRTAIRSDSTHLVTLGGVLRQQLVVSKELRMYDERAQEWRSLAPMDAPRYQHGIAVIGNFLYVVGGQSNYDTKGKTAVDTVFRFDPRYNKWMQVASLNEKRTFFHLSALKGHLYAVGGRSAAGELATVECYNPRMNEWSYVAKMSEPHYGHAGTVYGGLMYISGGITHDTFQNELMCFDPDTDKWMQKAPMTTVRGLHCMCTVGDKLYVIGGNHFRGTSDYDDVLSCEYYSPTLDQWTPIAAMLRGQSDVGVAVFENKIYVVGGYSWNNRCMVEIVQKYDPEKDEWHKVFDLPESLGGIRACTLTVFPPEENPGSPSRESPLSAPSDHS | failed |
| MKVTQLSSETLDRAHERFEETLAQMTVAEANTMPAPLIKSVTWLMWHTARELDLQISALNHSDPLWLSQHWTEKFALDLPDETEDWHHTPEEAAKVVVAEKQLLSDYLAASVALTKSYLDQIKEEQLSDVIDKNWTPPVTRQVRLVSAIDDAVMHSGQAVYTRRLVIGK | not failed |
| MKVTVTTLELKDKITIASKALAKKSVKPILAGFLFEVKDGNFYICATDLETGVKATVNAAEISGEARFVVPGDVIQKMVKVLPDEITELSLEGDALVISSGSTVFRITTMPADEFPEITPAESGITFEVDTSLLEEMVEKVIFAAAKDEFMRNLNGVFWELHKNLLRLVASDGFRLALAEEQIENEEEASFLLSLKSMKEVQNVLDNTTEPTITVRYDGRRVSLSTNDVETVMRVVDAEFPDYKRVIPETFKTKVVVSRKELRESLKRVMVIASKGSESVKFEIEENVMRLVSKSPDYGEVVDEVEVQKEGEDLVIAFNPKFIEDVLKHIETEEIEMNFVDSTSPCQINPLDISGYLYIVMPIRLA | not failed |
| MKVVLVGATGFVGRHLLAALHAAGHQLIATSRRPQPQGLPGVEWRQLDLDCLGREPQPFALPADTDLLINAAGLLSTDARALSLTQDLGTRALFDLAAARGVRVLQISALGAGILPQVPFLASKAAADDYLLQLGVPAVVLRPSLVLGAGGASSGWLTRLSPWPLIPLLSAKAQMQPLHIEDLSAAVLALLRQWPQESMVLPLVGPERMTMAQLLDRLRSAQGWAPARYFKLPAVLLRLVAAAGDRLGWRALNRQSLAMARHDNLADPQVLASVCGYHAAPLAARLQDWPQAAQSTQLALRPLLLAVMVLIWLGTALVCIGPGYAWGLRIMAEAGVQGIWAALAVIGGSLCDALLGVGLLLRRWRRRALQAQLGLMLGYTLIISLILPHFWFDPYAAVAKNLVLMVATLWLLWTEPHQ | failed |
| MKVWPVKHSPLLRQPERFIARSELQALIRNVTQNLVNIKDESGQFLLRLDDGRVIDTKGWAGWEWTHGVGLYGIYQYYQQTGDIEMRDIIDRWFADRFAEGATTKNVNTMAPFLTLAYRFEETGRMAYLPWLESWAEWAMHEMPRTEQGGMQHMTLAEENHQQMWDDTLMMTVLPLAKIGKLLNRPQYVEEATYQFLLHVQNLMDRETGLWFHGWNYEGRHNFARARWARGNSWLTMVIPDFLELVDLPEGNAVRRYLITVLDAQIAALAECQDDSGLWHTLLDDPHSYLEASATAGFAYGILKAVRKRYVGQHYAGVAEKAIRGIVQNISPQGELLQTSFGTGMGSDLDFYRQIPLTSMPYGQAMAILCLTEYLRKYF | not failed |
| MKVYLESFGCSASQASAEIMKASIGKLGHELLSPENAGQAEVYICNSCTVKYTTEQKILYKIRSMGEKGVQVIVSGCMPEVQLEDILHANPEAHILGVNAVSRLGDLLSTIEQRKKTGIPGGERLEIRTSEPQGFLNVPRERSNPNIHICQISQGCNFACSYCIVKHARGKLLSFPPEEIIEDIRSAVADGCREIWLTSQDDSQYGMDTGVKLPELLRAISEIPGDFKVRVGMMNPFSVLPILDDLVDAFDSDKIFKLLHLPIQSASHSVLKKMNRLHKMDSVDEIITKFRAHFEDLSLFTDIIVGFCDETDEDFEETIEWVKKYRPEKINISRYSPRPHTKAFSFRNLDSRISVKRSHQLHKVCEQIKIESKNEMIGWKGRVFVSKYTEIGDVLTRTDSYRPVVISGSDLRPGEYAEVKITGAKPGYFLGKLVSLEHHHHHH | not failed |
| MKWDKKWNDGIILALETAFISWFTYAFLYQNYLLYKWHRGSPLPSKIPFVLAGIFVGLAFLAWKGRNLLKPLRENNGGALDERS | failed |
| MKWNLDPSHTSIDFKVRHMGIASVRGSLKVLSGSVETDEAGRPIQVEAVIDAASIATGEPQRDGHLRSADFLHAEQYPEIRFVSTQIEPLGGNRYRIQGNLTIRDITKPVTLEAEVSAPIKDPWGMQRVAASASGQINRKDWNLTWNQVLELGALLVGEEVKFNLEVEAVAPAPVAAQ | not failed |
